Results: patent US20080044419A1, “Treatment of T Cell Mediated Diseases by Inhibition of Fgfr3” (Fibron Ltd., priority 2003, published 2008)
Where a chain is given by its changes, count along the chain named.

B1: PRO-002: HuCAL clone anti-FGFR3 antibody; VH-CDR3 SEQ ID NO:2, VL-CDR3 SEQ ID NO:11 (antibody, V domains shown)
VH: QVQLVQSGAEVKKPGASVKVSCKASGYTFTSYYMHWVRQAPGQGLEWMGWINPNSGGTNYAQKFQGRVTMTRDTSISTAYMELSSLRSEDTAVYYCARDFLGYEFDYWGQGTLVTVSS
VL: DIELTQPPSVSVAPGQTARISCSGDALGDKYASWYQQKPGQAPVLVIYDDSDRPSGIPERFSGSNSGNTATLTISGTQAEDEADYYCQSYDYSADYVFGGGTKLTVLGQ
B2: PRO-026: HuCAL clone anti-FGFR3 antibody; VH-CDR3 SEQ ID NO:6, VL-CDR3 SEQ ID NO:15 (antibody, V domains shown)
VH: QVQLVQSGAEVKKPGASVKVSCKASGYTFTSYYMHWVRQAPGQGLEWMGWINPNSGGTNYAQKFQGRVTMTRDTSISTAYMELSSLRSEDTAVYYCARGYWYAYFTYINYGYFDNWGQGTLVTVSS
VL: DIALTQPASVSGSPGQSITISCTGTSSDVGGYNYVSWYQQHPGKAPKLMIYDVSNRPSGVSNRFSGSKSGNTASLTISGLQAEDEADYYCQSYDNNSDVVFGGGTKLTVLGQ
B3: PRO-029: HuCAL clone anti-FGFR3 antibody; VH-CDR3 SEQ ID NO:7, VL-CDR3 SEQ ID NO:16 (antibody, V domains shown)
VH: QVQLVQSGAEVKKPGASVKVSCKASGYTFTSYYMHWVRQAPGQGLEWMGWINPNSGGTNYAQKFQGRVTMTRDTSISTAYMELSSLRSEDTAVYYCARTWQYSYFYYLDGGYYFDIWGQGTLVTVSS
VL: DIVLTQSPATLSLSPGERATLSCRASQSVSSSYLAWYQQKPGQAPRLLIYGASSRATGVPARFSGSGSGTDFTLTISSLEPEDFATYYCQQTNNAPVTFGQGTKVEIKRT
B4: PRO-001: HuCAL clone anti-FGFR3 antibody; VH-CDR3 SEQ ID NO:1, VL-CDR3 SEQ ID NO:10; VH SEQ ID NO:19, VL SEQ ID NO:28 (antibody, V domains shown)
VH: QVQLQQSGPGLVKPSQTLSLTCAISGDSVSSNSAAWNWIRQSPGRGLEWLGRTYYRSKWYNDYAVSVKSRITINPDTSKNQFSLQLNSVTPEDTAVYYCARSYYPDFDYWGQGTLVTVSS
VL: B1 VL with Y92G, S93P, A94D, D95L, Y96W
modifications: SEQUENCE FROM PHAGE LIBRARY
B5: PRO-054: HuCAL clone anti-FGFR3 antibody; VH-CDR3 SEQ ID NO:8, VL-CDR3 SEQ ID NO:17 (antibody, V domains shown)
VH: QVQLVQSGAEVKKPGASVKVSCKASGYTFTSYYMHWVRQAPGQGLEWMGWINPNSGGTNYAQKFQGRVTMTRDTSISTAYMELSSLRSEDTAVYYCARNMAYTNYQYVNMPHFDYWGQGTLVTVSS
VL: DIELTQPPSVSVAPGQTARISCSGDALGDKYASWYQQKPGQAPVLVIYDDSDRPSGIPERFSGSNSGNTATLTISGTQAEDEADYYCQSYDYFKLVFGGGTKLTVLGQ
B6: PRO-055: HuCAL clone anti-FGFR3 antibody; VH-CDR3 SEQ ID NO:9, VL-CDR3 SEQ ID NO:18 (antibody, V domains shown)
VH: QVQLVQSGAEVKKPGASVKVSCKASGYTFTSYYMHWVRQAPGQGLEWMGWINPNSGGTNYAQKFQGRVTMTRDTSISTAYMELSSLRSEDTAVYYCARSMNSTMYWYLRRVLFDHWGQGTLVTVSS
VL: B2 VL with N95M, N96Y, S97N, D98Y, V99I

The molecules below were run against T1, FGFR3 (Homo sapiens, UniProt P22607) (assay: Affinity to FGFR3 measured by FACS). Settings: not given.
T1 sequence (P22607 23-806): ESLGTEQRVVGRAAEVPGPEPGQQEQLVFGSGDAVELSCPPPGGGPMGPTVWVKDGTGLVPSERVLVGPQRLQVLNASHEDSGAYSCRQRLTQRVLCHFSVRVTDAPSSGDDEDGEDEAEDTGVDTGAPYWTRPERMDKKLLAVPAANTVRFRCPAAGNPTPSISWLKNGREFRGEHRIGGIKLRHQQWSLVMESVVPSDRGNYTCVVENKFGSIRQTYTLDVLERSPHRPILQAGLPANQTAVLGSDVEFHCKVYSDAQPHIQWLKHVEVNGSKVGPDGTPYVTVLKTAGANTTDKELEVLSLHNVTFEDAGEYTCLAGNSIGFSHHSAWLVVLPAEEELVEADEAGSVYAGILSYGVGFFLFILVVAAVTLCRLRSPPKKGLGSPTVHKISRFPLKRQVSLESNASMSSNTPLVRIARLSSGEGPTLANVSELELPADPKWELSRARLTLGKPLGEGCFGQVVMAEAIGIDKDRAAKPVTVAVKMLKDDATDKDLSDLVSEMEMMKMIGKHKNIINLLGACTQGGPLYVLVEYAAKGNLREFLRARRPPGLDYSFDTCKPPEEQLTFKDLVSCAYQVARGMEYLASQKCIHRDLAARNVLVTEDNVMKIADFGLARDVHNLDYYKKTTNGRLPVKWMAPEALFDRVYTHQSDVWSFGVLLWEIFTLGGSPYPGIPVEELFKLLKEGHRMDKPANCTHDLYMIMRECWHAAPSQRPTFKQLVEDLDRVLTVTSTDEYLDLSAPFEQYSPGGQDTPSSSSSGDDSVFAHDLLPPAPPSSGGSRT
Format: binding

Molecule	Kd [nM]
B1	43
B2	1.4
B3	< 1
B4	0.7

Each molecule was assayed against T1, FGFR3 (assay: FDCP-FGFR3 proliferation assay performed with FGF9). Settings: dimeric dHLX format.
Format: cell-based

Molecule	IC50 [nM]
B1	360
B2	70
B3	20
B5	45
B6	34
B4	19
